Assay results: the nanobody polyreactivity screen of Harvey et al. (2022)

Experiment: yeast display, Sf9 membrane polyspecificity reagent, FACS + sequencing; frameworks hold sequencing errors
In short: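 Galactose-induced (36–48 hours) yeast carrying a synthetic nanobody display library were exposed to 10% biotinylated, detergent-solubilized Sf9 membrane reagent at 4 °C for 1 hour. FACS followed streptavidin microbead enrichment, using low and high (top ~1%) gates for expression (anti-HA) and reagent binding (streptavidin). Colony PCR, MiSeq 2 × 250 sequencing and CDR-length filtering followed. Labels for polyreactivity reflect the gate of origin.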

Sequence	polyreactivity (PSR sort gate)
QVQLVESGGGLVQAGGSLRLSCAASGSIFYHNAMGWYRQAPGKERELVAAITSGGSTHYADSVKGRFTISRDNAKNTVYLQMNSLKPEDTAVYYCNARDRRRTNLLDYWGQGTQVTVSS	low polyreactivity
QVQLVESGGGLVQAGGSLRLSCAASGSIFYHNAMGWYRQAPGKERELVATISWRSASTYYADSVKGRFRISRDNAKNTVYLQMNSLKPEDTAVYYCAAKLQYRQYYYRYGYDYWGQGTQVTVSS	high polyreactivity
QVQLVESGGGLVQAGGSLRLSCAASGSIFYHYAMGWYRQAPGKEREFVAAITRRGTSTYYADSVKGRFTISRDNAKNTVYLQMNSLKPEDTAVYYCAARYGPNMDYCGQGTQVTVSS	high polyreactivity
QVQLVESGGGLVQAGGSLRLSCAASGSIFYHYAMGWYRQAPGKEWELVAAITITGGSTYYADSVKGRFTISRDNAKNTVYLQMNSLKPEDTAVYYCAAEGWYGYQWFDYWGQGTQVTVSS	high polyreactivity
QVQLVESGGGLVQAGGSLRLSCAASGSIFYINAMGWYRQAPGKERELVASISGGGGSTYYADSVKGRFTISRDNAKNTVYLQMNSLKPEDTAVYYCAARYRVYYLAGYEYWGQGTQVTVSS	high polyreactivity
QVQLVESGGGLVQAGGSLRLSCAASGSIFYISAMGWYRQAPGKERELVAAISWIDDTTYYADSVKGRFTISRDNAKNTVYLQMNSLKPEDTAVYYCAAELENVYAGGQMDYWGQGTQVTVSS	high polyreactivity
QVQLVESGGGLVQAGGSLRLSCAASGSIFYIYAMGWYRQAPGKERELVASITFSGDITYYADSVKGRFTISRDNAKNTVYLQMNSLKPEDTAVYYCAADYHEQSYAVTYDYWGQGTQVTVSS	low polyreactivity
QVQLVESGGGLVQAGGSLRLSCAASGSIFYLNAMGWYRQAPGKERELVAAISKRGSRTYYADSVKGRFTISRDNAKNTVYLQMNSLKPEDTAVYYCNALDTPGYNTEPARQYDHWGQGTQVTVSS	high polyreactivity
QVQLVESGGGLVQAGGSLRLSCAASGSIFYLYAMGWYRQAPGKERELVADINWNGGTYYADSVKGRFTISRDNAKNTVYLQMNSLKPEDTAVYYCAAYYYPYEYDYWGQGTQVTVSS	high polyreactivity
QVQLVESGGGLVQAGGSLRLSCAASGSIFYLYAMGWYRQAPGKERELVAGITTSGGTTYYADSVKGRFTISRDNAKNTVYLQMNSLKPEDTAVYYCNAAVGYYSLPYDYWGQGTQVTVSS	low polyreactivity
QVQLVESGGGLVQAGGSLRLSCAASGSIFYLYAMGWYRQAPGKERELVATITASGGSTNYADSVKGRFTISRDNAKNTVYLQMNSLKPEDTAVYYCAAEYYYLVYEYDYWGQGTQVTVSS	high polyreactivity
QVQLVESGGGLVQAGGSLRLSCAASGSIFYNALGWYRQAPGKERELVASISWSGGTSTYYADSVKGLFTISRDNAKNTVYLQMNSMKPEDTAVYYCAKASRYSSYWMYYWGQGTQVTVSS	high polyreactivity
QVQLVESGGGLVQAGGSLRLSCAASGSIFYNAMGGYRQAPGKERELVAGISSGTSTYYADSVKGRFTISRDNAKNTVYLLMNSLKPEDTEVYYCATRWSYRYGYWGQGTQVTVSS	high polyreactivity
QVQLVESGGGLVQAGGSLRLSCAASGSIFYNYGMGWYRQAAGKEGELVAAIRASGDSTYYADSVKGRFTISRDNAKNTLYLQINSQKPEDTAVYYCAARPNQSYNGLYYYWGQGTQVTVSS	low polyreactivity
QVQLVESGGGLVQAGGSLRLSCAASGSIFYNYTMGWSRQAPGKERELVAAISSSGGSTYYADSVKGRFSISRDNAKITVYLQMNSLTPEDTAVYFCAARSPGYYRIVWYDYWGLGTQVTVSS	high polyreactivity
QVQLVESGGGLVQAGGSLRLSCAASGSIFYPYAMGWYRKAPGKERELVAAIRRSGVDTYYADSVKGRFTISRDYAKNTYNLQMISLKPEDTAVYYCAADPYWFFAHYDSWGQGTQVTVSS	low polyreactivity
QVQLVESGGGLVQAGGSLRLSCAASGSIFYPYAMGWYRPAPGTERELVASISWSGGSTRYADSVKGRFTISRDNAKNSVYLQMNSLKPEDTAVYYCNAGYRTRHISLYDYWGQGTQVTVSS	high polyreactivity
QVQLVESGGGLVQAGGSLRLSCAASGSIFYPYAMGWYRQAPGKERELVAAISSGGRTYYADSVKGRFTISRDNAKNTVYLQMNSLKPEDTAVFYCAARPKAYGRPPGYYWGQGTQVTVSS	high polyreactivity
QVQLVESGGGLVQAGGSLRLSCAASGSIFYPYAMGWYRQAPGKERELVAAISSSGGSTYYADSVKGRFTISRDNAKNTVYLQMNSLKPEDTAVYYCAADAATGIFDRLNYWGQGTQVTVSS	high polyreactivity
QVQLVESGGGLVQAGGSLRLSCAASGSIFYPYAMGWYRQAPGKERELVAAITWSGGETYYADSVKGRFTISRDNAKNTVYLQMNSLKPEDTAVYYCAAEWNVSPYDYWGQGTQVTVSS	low polyreactivity
QVQLVESGGGLVQAGGSLRLSCAASGSIFYPYAMGWYRQAPGKERELVASITINDGSTYYADSVKGRFTISRDNAKNTVYLQMNSLKTEDTSVYYCNVEPVPGFGSEYEYWGQGTQVTVSS	low polyreactivity
QVQLVESGGGLVQAGGSLRLSCAASGSIFYPYTMGWYRQAPGKERELVAAISGGCRTYYADSVKGRFTISRDNAKNTVYLQMNSLKPEDTAVYYCAARYGYRWLVGKYEYWGQGTQVTVSS	high polyreactivity

Sequence	polyreactivity (PSR sort gate)
QVQLVESGGGLVQAGGSLRLSCAASGSIFYQNAMGWYRHAPGKERELVAAITSDGSTYYADSVKGRFTISRDNAKKTVYLQMNSLKPEDTAVYYCAAEDYGHRYDYWGQGTQVTVSS	low polyreactivity
QVQLVESGGGLVQAGGSLRLSCAASGSIFYQNAMGWYRQAPGKERELVAAITSDGSTYYADSVKGRFTISRDNAKNTVYLQMNSLKPEDNAVYYCAAEYYVHRYDYWGQGTQVTVSS	low polyreactivity
QVQLVESGGGLVQAGGSLRLSCAASGSIFYRNALGWYRQAPGKERELVAAISSDGSTNYADSVKGRFTISRDNAKNTVYLQMNSLKPEDTAVYYCAAPWTQILDYWGQGTQVTVSS	low polyreactivity
QVQLVESGGGLVQAGGSLRLSCAASGSIFYRNAMGWSRQAPGKERELVAAISASGGSTYYADSVKGRFTISRDNAKNTVYLQMNSLKPEDTAVYYCAVEYRKSRSYAPMGYWGQGTQVTVSS	high polyreactivity
QVQLVESGGGLVQAGGSLRLSCAASGSIFYRNAMGWYRQAPGKERELVAAISSDGSTNYADSVKGRFTISRDNAKNTVYLQMNSLKPEDTAVYDCAGLQKRRSYWRPFYWGQGTQVTVSS	low polyreactivity
QVQLVESGGGLVQAGGSLRLSCAASGSIFYRNAMGWYRQAPGKERELVAAISSDGSTNYADSVKGRFTISRDNAKNTVYLQMNSLKPEDTAVYYCAAPWTHILDYWGQGTQVTVSS	low polyreactivity
QVQLVESGGGLVQAGGSLRLSCAASGSIFYRNAMGWYRQAPGKERELVAAISSDGSTNYADSVTGRFTISRDNAKNTVYLQMNSLKPEDTAVYYCAAPWTQILDYWGQGTQVTVSS	low polyreactivity
QVQLVESGGGLVQAGGSLRLSCAASGSIFYRNAMGWYRQAPGKERELVAAISSRGTRTYYADSVKGRFTISRDNAKNTVYLQMNSLKPEDTAVYYCAAADYRFYNGPYSRRWLYGYWGQGTQVTVSS	high polyreactivity
QVQLVESGGGLVQAGGSLRLSCAASGSIFYRNAMGWYRQAPGKERELVAAISSSVSSTYYADSVKGRFTISRDNAKNTVYLQMNSLKPEDTAVYYCAARRVQRGGDYVYRYLYDYWGQGTQVTVSS	low polyreactivity
QVQLVESGGGLVQAGGSLRLSCAASGSIFYRNAMGWYRQAPGKERELVAAITRSDGRTYYADSVKGRFTISRDNAKNTVYLLMNSLKPEDTAVYYCAADYSFGYRDFYYWGQGTQVTVSS	low polyreactivity
QVQLVESGGGLVQAGGSLRLSCAASGSIFYRNAMGWYRQTPGKERELVAAISSDGSTNYADSVKGRFTFSLDNAKNTVYLQMNRLNPEYTAVYYCAAPWTQFLDYWGQGTQVTVSS	low polyreactivity
QVQLVESGGGLVQAGGSLRLSCAASGSIFYRNTMGWYRQAPGKERELVASINTGTGTYYADSVKGRFTISRDNAKNTVYLQMNSLKPEDTAVYYCNAKGWVWPFPSYYPYDSWGQGTQVTVSS	high polyreactivity
QVQLVESGGGLVQAGGSLRLSCAASGSIFYRNVMGWYRQAPGKERELVAAISQRGGSTYYADSVKGRFTISRDNAKNTVYLQMNSLKPEDTAVYYCNAASRGAGTSIWSWYDHWGQGTQVTVSS	low polyreactivity
QVQLVESGGGLVQAGGSLRLSCAASGSIFYRNVMGWYRQAPGKERELVAAISRSGGSTYYADSVKGRFTISRDNAKNTVYLQMNSLQPEDTAVYYCAGRYSPFYYWGQGTQVTVSS	high polyreactivity
QVQLVESGGGLVQAGGSLRLSCAASGSIFYRYALGWYRQAPGKEREFVAGITTRGGSTYYADSVKGRFTISRDNAKNTVYFQMNCLKPEDTAVYDCAASSRVWPNFGYWGQGTQVTVSS	high polyreactivity
QVQLVESGGGLVQAGGSLRLSCAASGSIFYRYAMAWYRQAPGKERELVAAISSTGSPYYADSVKGRFTISRDNAKNTVYLQRNSLKPEDTAVYYCAARQGYRSYRRYDDWGQGTQVTVSS	high polyreactivity
QVQLVESGGGLVQAGGSLRLSCAASGSIFYRYAMGWNRPAPGKERELVAAISRSGGTTYYADSVKGRFTISRDNAKNTVYLQMYCLKPEDTAVYYCAALVFHAYSTDPYFYWGQGTQVTVSS	high polyreactivity
QVQLVESGGGLVQAGGSLRLSCAASGSIFYRYAMGWYRPAPGKERELVAAISSTGSTYYADSVKGRFTISRDNAKNTVYLQMNSLKPEDTAVYYCAARQGFRSYRRYDYWGQGTQVTVSS	high polyreactivity
QVQLVESGGGLVQAGGSLRLSCAASGSIFYRYAMGWYRQAPGKERELVASISSGVSTNYADSVKGRFTISRDNAKNTVYLQMNSLKPEDTAVYYCAAYYRGWSSSYWYPAYNYWGQGTQVTVSS	low polyreactivity
QVQLVESGGGLVQAGGSLRLSCAASGSIFYRYAMGWYRQAPGKERELVATITRRGGTTYYADSVKGRFTISRDNAKNTVYLKMNSLKPEDTAVYYCARPYLRASYGAIDYDYWGQGTQVTVSS	high polyreactivity
QVQLVESGGGLVQAGGSLRLSCAASGSIFYRYAMGWYRQAPGKERELVAVISTGGSTYYADSVKGRFTISRDNAKNTVYLQMNSLKPEDTAVYYCNVLYYSRYAPYGRYGYWGQGTQVTVSS	high polyreactivity
